Tests used:
[1] = EV-203 pharmacokinetics of ADC, TAb and free MMAE in serum or plasma; format: in vivo, human; conditions: for Serum concentration at end of infusion / AUC0–7d / C max: mean (SD); for AUC0–7d: 1.25 mg/kg IV
Method: In the PK cohort (i.e., PK analysis set), intensive PK sampling was performed wherein blood samples for analysis of ADC, total antibody (TAb), and free (unconjugated) MMAE were collected at prespecified time points. […] Blood samples for antitherapeutic antibodies (ATAs) were collected predose on Day 1 of cycles 1 to 4, 6, 8, 10, and within 30–37 days after the last study dose. Validated assays were used to measure concentrations of ADC, TAb, and free MMAE in serum or plasma and to assess ATA levels.
All patients who received any amount of study drug were included in the primary analyses of efficacy endpoints and safety analyses. The PK analyses included data from patients in the PK cohort who received at least 3 of 4 doses of the study drug through cycle 2 Day 1 and had at least five blood samples collected and assayed for measurements of ADC, TAb, or free MMAE concentrations to determine at least one PK parameter.

[2] = EV-203 safety/tolerability: adverse events; format: in vivo, human; conditions: for Treatment-related adverse event: Any: 1.25 mg/kg; for Treatment-related adverse event: Any / Treatment-emergent adverse event: Alopecia / Treatment-emergent adverse event: Anemia / Treatment-emergent adverse event: Any / Treatment-emergent adverse event: Aspartate aminotransferase increased / Treatment-emergent adverse event: Constipation / Treatment-emergent adverse event: Decreased appetite / Treatment-emergent adverse event: Diarrhea / Treatment-emergent adverse event: Hyperglycemia / Treatment-emergent adverse event: Hypokalemia / Treatment-emergent adverse event: Hyponatremia / Treatment-emergent adverse event: Hypophosphatemia / Treatment-emergent adverse event: Nausea / Treatment-emergent adverse event: Neutrophil count decreased / Treatment-emergent adverse event: Pneumonia / Treatment-emergent adverse event: Pruritus / Treatment-emergent adverse event: Pyrexia / Treatment-emergent adverse event: Rash / Treatment-emergent adverse event: Rash maculo-papular / Treatment-emergent adverse event: Vomiting / Treatment-emergent adverse event: White blood cell count decreased / Treatment-related adverse event of special interest: Corneal disorder/blurred vision / Treatment-related adverse event of special interest: Dry eye / Treatment-related adverse event of special interest: Hyperglycemia (composite) / Treatment-related adverse event of special interest: Infusion-related reaction / Treatment-related adverse event of special interest: Peripheral neuropathy (composite) / Treatment-related adverse event of special interest: Skin reaction (composite) / Treatment-related adverse event: Alopecia / Treatment-related adverse event: Anemia / Treatment-related adverse event: Aspartate aminotransferase increased / Treatment-related adverse event: Constipation / Treatment-related adverse event: Decreased appetite / Treatment-related adverse event: Diarrhea / Treatment-related adverse event: Hyperglycemia (preferred term) / Treatment-related adverse event: Hypokalemia / Treatment-related adverse event: Hyponatremia / Treatment-related adverse event: Hypophosphatemia / Treatment-related adverse event: Nausea / Treatment-related adverse event: Neutrophil count decreased / Treatment-related adverse event: Pruritus / Treatment-related adverse event: Rash / Treatment-related adverse event: Rash maculopapular / Treatment-related adverse event: White blood cell count decreased: N = 40
Description: Safety assessments included physical and ophthalmologic examinations, clinical laboratory tests, 12‐lead electrocardiography, and ECOG PS.
PFS was defined as the time from the start of the study treatment to the first documentation of objective tumor progression (i.e., progressive disease per RECIST version 1.1) by IRC or investigator assessment (whichever was specified) or to death due to any cause, whichever came first. OS was defined as the time from the start of study treatment to the date of death due to any cause. […] AEs of special interest were medical concepts of composite terms based on search criteria (standard Medical Dictionary for Regulatory Activities query or sponsor‐specific query/customized Medical Dictionary for Regulatory Activities query). For example, skin reactions included categories of rash and severe cutaneous adverse reactions (which included specific events such as drug eruption, eczema, dermatitis, mouth ulceration, stomatitis, etc.). Data for treatment‐related AEs (TRAEs) were evaluated by the investigator.
All patients who received any amount of study drug were included in the primary analyses of efficacy endpoints and safety analyses.

[3] = serum, Cycle 1 Day 1, PK cohort
[4] = serum, Cycle 1 Day 15, PK cohort

## enfortumab vedotin: fully human monoclonal ADC directed to Nectin-4, delivering intracellular monomethyl auristatin E (MMAE) to tumor cells
[1]; cycle 1 Day 1, Non-PK cohort
  Serum concentration at end of infusion: 25,300 (3830) [23] ng/mL
[1]; cycle 1 Day 1, PK cohort
  Serum concentration at end of infusion: 27,700 (4410) [13] ng/mL
[1]; cycle 1 Day 8, Non-PK cohort
  Serum concentration at end of infusion: 24,900 (5400) [17] ng/mL
[1]; cycle 1 Day 8, PK cohort
  Serum concentration at end of infusion: 27,400 (4390) [12] ng/mL
[1]; cycle 1 Day 15, Non-PK cohort
  Serum concentration at end of infusion: 22,000 (5980) [11] ng/mL
[1]; cycle 1 Day 15, PK cohort
  Serum concentration at end of infusion: 27,500 (3820) [10] ng/mL
[1]; [3]
  AUC0–7d: 32.4 (6.2) day μg/mL
  C max: 28.1 (4.52) μg/mL
[1]; [4]
  AUC0–7d: 36.5 (7.9) day μg/mL
  C max: 27.6 (4.01) μg/mL
[1]; serum, PK cohort cycle 1
  Time of peak serum concentration: at the end of the enfortumab vedotin infusion
[2]; 13 patients
  Treatment-related skin reactions grade 3, patients: 32.5%
[2]; 15 patients, all events grade 1 or 2
  Treatment-related peripheral neuropathy, patients: 37.5%
[2]; 16 of 40 patients
  Serious TRAEs, patients: 40.0%
[2]; 22 of 40 patients
  Dose interruption due to TRAEs, patients: 55.0%
[2]; 25 of 40 patients
  Dose reduction due to TRAEs, patients: 62.5%
[2]; 29 of 40 patients
  Grade 3 or higher TRAEs, patients: 72.5%
[2]; any grade
  Treatment-related adverse event: Any: 40 (100) n (%)
  Treatment-emergent adverse event: Alopecia: 12 (30.0) n (%)
  Treatment-emergent adverse event: Anemia: 28 (70.0) n (%)
  Treatment-emergent adverse event: Any: 40 (100) n (%)
  Treatment-emergent adverse event: Aspartate aminotransferase increased: 26 (65.0) n (%)
  Treatment-emergent adverse event: Constipation: 19 (47.5) n (%)
  Treatment-emergent adverse event: Decreased appetite: 26 (65.0) n (%)
  Treatment-emergent adverse event: Diarrhea: 19 (47.5) n (%)
  Treatment-emergent adverse event: Hyperglycemia: 20 (50.0) n (%)
  Treatment-emergent adverse event: Hypokalemia: 15 (37.5) n (%)
  Treatment-emergent adverse event: Hyponatremia: 13 (32.5) n (%)
  Treatment-emergent adverse event: Hypophosphatemia: 7 (17.5) n (%)
  Treatment-emergent adverse event: Nausea: 20 (50.0) n (%)
  Treatment-emergent adverse event: Neutrophil count decreased: 19 (47.5) n (%)
  Treatment-emergent adverse event: Pneumonia: 5 (12.5) n (%)
  Treatment-emergent adverse event: Pruritus: 14 (35.0) n (%)
  Treatment-emergent adverse event: Pyrexia: 15 (37.5) n (%)
  Treatment-emergent adverse event: Rash: 17 (42.5) n (%)
  Treatment-emergent adverse event: Rash maculo-papular: 6 (15.0) n (%)
  Treatment-emergent adverse event: Vomiting: 12 (30.0) n (%)
  Treatment-emergent adverse event: White blood cell count decreased: 16 (40.0) n (%)
  Treatment-related adverse event of special interest: Corneal disorder/blurred vision: 2 (5.0) n (%)
  Treatment-related adverse event of special interest: Dry eye: 3 (7.5) n (%)
  Treatment-related adverse event of special interest: Hyperglycemia (composite): 22 (55.0) n (%)
  Treatment-related adverse event of special interest: Infusion-related reaction: 2 (5.0) n (%)
  Treatment-related adverse event of special interest: Peripheral neuropathy (composite): 15 (37.5) n (%)
  Treatment-related adverse event of special interest: Skin reaction (composite): 31 (77.5) n (%)
  Treatment-related adverse event: Alopecia: 12 (30.0) n (%)
  Treatment-related adverse event: Anemia: 27 (67.5) n (%)
  Treatment-related adverse event: Aspartate aminotransferase increased: 25 (62.5) n (%)
  Treatment-related adverse event: Constipation: 16 (40.0) n (%)
  Treatment-related adverse event: Decreased appetite: 25 (62.5) n (%)
  Treatment-related adverse event: Diarrhea: 19 (47.5) n (%)
  Treatment-related adverse event: Hyperglycemia (preferred term): 19 (47.5) n (%)
  Treatment-related adverse event: Hypokalemia: 14 (35.0) n (%)
  Treatment-related adverse event: Hyponatremia: 12 (30.0) n (%)
  Treatment-related adverse event: Hypophosphatemia: 7 (17.5) n (%)
  Treatment-related adverse event: Nausea: 20 (50.0) n (%)
  Treatment-related adverse event: Neutrophil count decreased: 19 (47.5) n (%)
  Treatment-related adverse event: Pruritus: 14 (35.0) n (%)
  Treatment-related adverse event: Rash: 17 (42.5) n (%)
  Treatment-related adverse event: Rash maculopapular: 6 (15.0) n (%)
  Treatment-related adverse event: White blood cell count decreased: 16 (40.0) n (%)
[2]; any grade, 22 patients
  Treatment-related hyperglycemia, patients: 55.0%
[2]; any grade, 31 patients
  Treatment-related skin reactions, patients: 77.5%
[2]; four patients
  Treatment-related hyperglycemia grade 3, patients: 10.0%
[2]; grade ≥ 3
  Treatment-related adverse event: Any: 29 (72.5) n (%)
  Treatment-emergent adverse event: Alopecia: 0 n (%)
  Treatment-emergent adverse event: Anemia: 6 (15.0) n (%)
  Treatment-emergent adverse event: Any: 30 (75.0) n (%)
  Treatment-emergent adverse event: Aspartate aminotransferase increased: 1 (2.5) n (%)
  Treatment-emergent adverse event: Constipation: 0 n (%)
  Treatment-emergent adverse event: Decreased appetite: 1 (2.5) n (%)
  Treatment-emergent adverse event: Diarrhea: 2 (5.0) n (%)
  Treatment-emergent adverse event: Hyperglycemia: 3 (7.5) n (%)
  Treatment-emergent adverse event: Hypokalemia: 2 (5.0) n (%)
  Treatment-emergent adverse event: Hyponatremia: 5 (12.5) n (%)
  Treatment-emergent adverse event: Hypophosphatemia: 5 (12.5) n (%)
  Treatment-emergent adverse event: Nausea: 0 n (%)
  Treatment-emergent adverse event: Neutrophil count decreased: 8 (20.0) n (%)
  Treatment-emergent adverse event: Pneumonia: 5 (12.5) n (%)
  Treatment-emergent adverse event: Pruritus: 2 (5.0) n (%)
  Treatment-emergent adverse event: Pyrexia: 0 n (%)
  Treatment-emergent adverse event: Rash: 5 (12.5) n (%)
  Treatment-emergent adverse event: Rash maculo-papular: 4 (10.0) n (%)
  Treatment-emergent adverse event: Vomiting: 0 n (%)
  Treatment-emergent adverse event: White blood cell count decreased: 5 (12.5) n (%)
  Treatment-related adverse event of special interest: Corneal disorder/blurred vision: 0 n (%)
  Treatment-related adverse event of special interest: Dry eye: 0 n (%)
  Treatment-related adverse event of special interest: Hyperglycemia (composite): 5 (12.5) n (%)
  Treatment-related adverse event of special interest: Infusion-related reaction: 0 n (%)
  Treatment-related adverse event of special interest: Peripheral neuropathy (composite): 0 n (%)
  Treatment-related adverse event of special interest: Skin reaction (composite): 13 (32.5) n (%)
  Treatment-related adverse event: Alopecia: 0 n (%)
  Treatment-related adverse event: Anemia: 6 (15.0) n (%)
  Treatment-related adverse event: Aspartate aminotransferase increased: 1 (2.5) n (%)
  Treatment-related adverse event: Constipation: 0 n (%)
  Treatment-related adverse event: Decreased appetite: 1 (2.5) n (%)
  Treatment-related adverse event: Diarrhea: 2 (5.0) n (%)
  Treatment-related adverse event: Hyperglycemia (preferred term): 3 (7.5) n (%)
  Treatment-related adverse event: Hypokalemia: 2 (5.0) n (%)
  Treatment-related adverse event: Hyponatremia: 5 (12.5) n (%)
  Treatment-related adverse event: Hypophosphatemia: 4 (10.0) n (%)
  Treatment-related adverse event: Nausea: 0 n (%)
  Treatment-related adverse event: Neutrophil count decreased: 8 (20.0) n (%)
  Treatment-related adverse event: Pruritus: 2 (5.0) n (%)
  Treatment-related adverse event: Rash: 5 (12.5) n (%)
  Treatment-related adverse event: Rash maculopapular: 4 (10.0) n (%)
  Treatment-related adverse event: White blood cell count decreased: 5 (12.5) n (%)
[2]; most common TRAE leading to dose interruption
  Dose interruption due to fatigue, patients: 10.0%
[2]; most common TRAE leading to dose reduction
  Dose reduction due to rash, patients: 22.5%
[2]; one patient
  Hyperglycemia leading to treatment discontinuation, patients: 2.5%
  Treatment-related hyperglycemia grade 4, patients: 2.5%
[2]; one patient, acute coronary syndrome
  Death due to a TRAE, patients: 2.5%
[2]; two patients: acute coronary syndrome, hyperglycemia and rash
  Treatment discontinuation due to TRAEs, patients: 5.0%
[2]; two patients, not considered treatment-related
  Deaths following malignant neoplasm progression, patients: 5.0%
